± gives the standard deviation.
Assay: collision cross section of modified peptide (TIMS, N2, iRT-aligned); higher = larger / more extended gas-phase ion
How it was run: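 Synthetic peptide pools (~100 fmol/µL in 2% acetonitrile/0.1% formic acid, iRT standard spiked 1:40) were separated on a 120-min nanoflow C18 gradient at 60 °C. They were analysed on a timsTOF Pro/HT (dda-PASEF, nitrogen, ~2.4 mbar) and identified with MaxQuant. 1/K0 was calibrated with three reference ions and aligned run-wise to the median iRT peptide deviation. Collision cross section came from the Mason-Schamp equation, averaging 1–3 technical replicates of the most abundant feature per charge state.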

[1] = charge state: 2, modification: Succinyl
[2] = charge state: 3, modification: Succinyl
[3] = charge state: 2, modification: Acetyl (K)
[4] = charge state: 3, modification: Acetyl (K)
[5] = charge state: 2, modification: Hydroxyproline
[6] = charge state: 3, modification: Hydroxyproline
[7] = charge state: 2, modification: Crotonyl
[8] = charge state: 3, modification: Crotonyl
[9] = charge state: 2, modification: Butyryl
[10] = charge state: 3, modification: Butyryl
[11] = charge state: 2, modification: Malonyl
[12] = charge state: 2, modification: Methyl (K)
[13] = charge state: 3, modification: Methyl (K)
[14] = charge state: 2, modification: Citrullination (R)
[15] = charge state: 3, modification: hydroxyisobutyryl
[16] = charge state: 2, modification: hydroxyisobutyryl
[17] = charge state: 2, modification: GlyGly (K)
[18] = charge state: 3, modification: GlyGly (K)

With “SITHSTVGSKGEK [_SITHSTVGSK(Succinyl)GEK_]” the collision cross section [1] was 392.73 ± 1.4 Å² and the collision cross section [2] was 442.37 ± 2.9 Å².

For “DESFLGKLGGTLAR [_DESFLGK(Acetyl (K))LGGTLAR_]”, the collision cross section [3] was 410.82 ± 1.1 Å² and the collision cross section [4] was 491.27 Å².

In the case of “VGVEAKQPNSAIR [_VGVEAKQP(Hydroxyproline)NSAIR_]”, the collision cross section [5] is reported as 405.11 ± 0.27 Å² and the collision cross section [6] is reported as 482.65 ± 0.83 Å².

In the case of VDATADYICK [_VDATADY(Nitro (Y))ICK_], the collision cross section (charge state: 2, modification: Nitro (Y)) is reported as 358.43 ± 0.17 Å².

For “VPTTEKPTVTVNFR [_VPTTEK(Crotonyl)PTVTVNFR_]”, the collision cross section [7] was 427.61 ± 0.55 Å² and the collision cross section [8] was 510.39 Å².

“DLSTVEALQNLKNLK [_DLSTVEALQNLK(Butyryl)NLK_]” gave a collision cross section [9] of 484.29 ± 0.35 Å² and a collision cross section [10] of 550.2 Å².

For VGEFSGANKEK [_VGEFSGANK(Malonyl)EK_], the collision cross section [11] was 354.12 ± 1.7 Å².

Sequence “DTGEKLTVAENEAETK [_DTGEK(Methyl (K))LTVAENEAETK_]” has a collision cross section [12] of 429.8 ± 2.5 Å² and a collision cross section [13] of 482 ± 3.4 Å².

“AGPNASIISLKSDK [_AGPNASIISLK(Trimethyl (K))SDK_]” gave a collision cross section (charge state: 2, modification: Trimethyl (K)) of 422.03 ± 0.65 Å² and a collision cross section (charge state: 3, modification: Trimethyl (K)) of 457.38 ± 2.4 Å².

“SNEEGSEEKGPEVR [_SNEEGSEEK(Methyl (K))GPEVR_]” gave a collision cross section [12] of 394.85 ± 7.3 Å² and a collision cross section [13] of 481.38 ± 2.6 Å².

Sequence SPDEAYAIAKK [_SPDEAYAIAK(Acetyl (K))K_] has a collision cross section [3] of 369.21 ± 0.94 Å² and a collision cross section [4] of 447.3 ± 0.6 Å².

“LRQQLQAK [_LR(Citrullination (R))QQLQAK_]” showed a collision cross section [14] of 337.45 ± 0.28 Å².

For “DLSTVEALQNLKNLK [_DLSTVEALQNLK(Crotonyl)NLK_]”, the collision cross section [7] was 484.33 ± 1.1 Å².

Work on “AAINQKLIETGER [_AAINQK(Crotonyl)LIETGER_]” yielded a collision cross section [7] of 409.27 ± 0.81 Å².

Work on “FGSRGGPGGGFR [_FGSR(Citrullination (R))GGPGGGFR_]” yielded a collision cross section [14] of 349.6 ± 0.64 Å².

Work on “ANEKTESSSAQQVAVSR [_ANEK(Malonyl)TESSSAQQVAVSR_]” yielded a collision cross section [11] of 438.58 ± 1 Å² and a collision cross section (charge state: 3, modification: Malonyl) of 534.15 ± 1.9 Å².

Sequence “FSPPSSSLQPGK [_FSPPSSS(HexNAc (ST))LQPGK_]” has a collision cross section (charge state: 2, modification: HexNAc (ST)) of 396.47 ± 1.2 Å².

In the case of “FGTINIVHPKLGSYTK [_FGTINIVHPK(Succinyl)LGSYTK_]”, the collision cross section [1] is reported as 474.47 ± 1.3 Å² and the collision cross section [2] is reported as 560.66 ± 0.77 Å².

For “GERGPPGPPGK [_GERGPPGPP(Hydroxyproline)GK_]”, the collision cross section [5] was 326.03 ± 0.88 Å² and the collision cross section [6] was 407.49 ± 18 Å².

For “TFGKAAGPSLSHTSGGTQSK [_TFGK(Crotonyl)AAGPSLSHTSGGTQSK_]”, the collision cross section [8] was 515.47 ± 1.3 Å².

Work on “YEQEHAAIQDKLFQVAK [_YEQEHAAIQDK(hydroxyisobutyryl)LFQVAK_]” yielded a collision cross section [15] of 519.87 ± 2 Å².

In the case of “DLSTVEALQNLKNLK [_DLSTVEALQNLK(hydroxyisobutyryl)NLK_]”, the collision cross section [16] is reported as 486.36 ± 1.3 Å² and the collision cross section [15] is reported as 549.84 ± 1.8 Å².

“GFCFITYTDEEPVKK [_GFCFITYTDEEPVK(hydroxyisobutyryl)K_]” showed a collision cross section [16] of 453.41 ± 0.8 Å².

In the case of VGTASVLQPVKK [_VGTASVLQPVK(Formyl)K_], the collision cross section (charge state: 2, modification: Formyl) is reported as 375.49 ± 0.89 Å².

With DFDTALKHYDK [_DFDTALK(Succinyl)HYDK_] the collision cross section [1] was 404.59 ± 1.1 Å² and the collision cross section [2] was 465.49 ± 2.9 Å².

“IHVQSSSDSSDEPAEKR [_IHVQSSSDSSDEPAEK(Acetyl (K))R_]” showed a collision cross section [3] of 446.96 ± 2.2 Å² and a collision cross section [4] of 501.64 ± 1.1 Å².

“ITESVAETAQTIKK [_ITESVAETAQTIK(GlyGly (K))K_]” gave a collision cross section [17] of 453.63 ± 0.95 Å² and a collision cross section [18] of 514.8 ± 1.1 Å².

“YEEIVKEVSTYIK [_YEEIVK(GlyGly (K))EVSTYIK_]” showed a collision cross section [17] of 459.86 ± 0.94 Å² and a collision cross section [18] of 512.47 ± 1.1 Å².

With “VLATQPGPGRGR [_VLATQPGPGR(Citrullination (R))GR_]” the collision cross section [14] was 364.01 ± 0.27 Å² and the collision cross section (charge state: 3, modification: Citrullination (R)) was 447.25 Å².

Work on “FLQEFYQDDELGKK [_FLQEFYQDDELGK(Acetyl (K))K_]” yielded a collision cross section [3] of 444.35 ± 1.6 Å² and a collision cross section [4] of 501.5 ± 0.084 Å².

Work on “LFVGGIKEDTEEHHLR [_LFVGGIK(Butyryl)EDTEEHHLR_]” yielded a collision cross section [9] of 500.41 ± 0.28 Å² and a collision cross section [10] of 545.89 ± 1.3 Å².

From the supplement of paper PMC10598134
